Data on one substance can be found in article PMC3438196.

What all share (experiment): two-hybrid; MAPPIT (mammalian two-hybrid) in intact HEK293T cells: bait on the EpoR/leptin receptor chimera, prey on gp130 fragments, pXP2d2-rPAP1-luciferase reporter; fold induction of luciferase, Epo-stimulated (10 ng/ml hEpo) over unstimulated; 6-well or 96-well calcium phosphate transfection
Experiment [1] has as its target Apobec3G TK98-99AD MAPPIT bait (human) (UniProt Q9HC16).
The target of experiment [2] is Apobec3G RD102-103SS MAPPIT bait (human) (UniProt Q9HC16).
Sequence of Apobec3G RD102-103SS MAPPIT bait (human) (Q9HC16 whole entry R102S/D103S): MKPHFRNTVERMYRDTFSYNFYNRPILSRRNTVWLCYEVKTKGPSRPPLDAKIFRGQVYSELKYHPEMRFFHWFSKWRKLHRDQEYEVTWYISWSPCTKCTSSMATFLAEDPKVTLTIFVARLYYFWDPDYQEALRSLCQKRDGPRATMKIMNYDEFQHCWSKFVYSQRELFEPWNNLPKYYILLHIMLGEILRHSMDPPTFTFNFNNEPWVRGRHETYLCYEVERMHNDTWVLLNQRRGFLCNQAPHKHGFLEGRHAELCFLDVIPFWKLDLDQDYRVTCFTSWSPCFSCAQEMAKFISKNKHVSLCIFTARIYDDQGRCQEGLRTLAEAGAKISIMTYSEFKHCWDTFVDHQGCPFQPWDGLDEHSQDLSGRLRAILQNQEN
For experiment [3], the target named is Apobec3G L184A MAPPIT bait (human) (UniProt Q9HC16).
Sequence of Apobec3G L184A MAPPIT bait (human) (Q9HC16 whole entry L184A): as the sequence (Q9HC16 whole entry R102S/D103S) above, with S102R, S103D, L184A counted along it
Experiment [4] deals with Apobec3G W34A MAPPIT bait (human) (UniProt Q9HC16).
Sequence of Apobec3G W34A MAPPIT bait (human) (Q9HC16 whole entry W34A): as the sequence (Q9HC16 whole entry R102S/D103S) above, with W34A, S102R, S103D counted along it
Experiment [5] addresses Apobec3G LS27-28AA MAPPIT bait (human) (UniProt Q9HC16).
The target in experiment [6] is Apobec3G T32D MAPPIT bait (human) (UniProt Q9HC16).
Sequence of Apobec3G T32D MAPPIT bait (human) (Q9HC16 whole entry T32D): as the sequence (Q9HC16 whole entry R102S/D103S) above, with T32D, S102R, S103D counted along it
In experiment [7] the target is Apobec3G R55A MAPPIT bait (human) (UniProt Q9HC16).
Sequence of Apobec3G R55A MAPPIT bait (human) (Q9HC16 whole entry R55A): as the sequence (Q9HC16 whole entry R102S/D103S) above, with R55A, S102R, S103D counted along it
Experiment [8] addresses Apobec3G K99D MAPPIT bait (human) (UniProt Q9HC16).
Experiment [9] has as its target Apobec3G D128H MAPPIT bait (human) (UniProt Q9HC16).
The target in experiment [10] is Apobec3G D130A MAPPIT bait (human) (UniProt Q9HC16).
Sequence of Apobec3G D130A MAPPIT bait (human) (Q9HC16 whole entry D130A): as the sequence (Q9HC16 whole entry R102S/D103S) above, with S102R, S103D, D130A counted along it
For experiment [11], the target named is Apobec3G T32Q MAPPIT bait (human) (UniProt Q9HC16).
Sequence of Apobec3G T32Q MAPPIT bait (human) (Q9HC16 whole entry T32Q): as the sequence (Q9HC16 whole entry R102S/D103S) above, with T32Q, S102R, S103D counted along it
Experiment [12] has as its target Apobec3G P129A MAPPIT bait (human) (UniProt Q9HC16).
Experiment [13] has as its target Apobec3G T32E MAPPIT bait (human) (UniProt Q9HC16).
In experiment [14] the target is Apobec3G E110K MAPPIT bait (human) (UniProt Q9HC16).
Sequence of Apobec3G E110K MAPPIT bait (human) (Q9HC16 whole entry E110K): as the sequence (Q9HC16 whole entry R102S/D103S) above, with S102R, S103D, E110K counted along it
The target in experiment [15] is Apobec3G M12A MAPPIT bait (human) (UniProt Q9HC16).
Sequence of Apobec3G M12A MAPPIT bait (human) (Q9HC16 whole entry M12A): as the sequence (Q9HC16 whole entry R102S/D103S) above, with M12A, S102R, S103D counted along it
Experiment [16] concerns the target Apobec3G TF106-107AA MAPPIT bait (human) (UniProt Q9HC16).

Sequence of Apobec3G LS27-28AA MAPPIT bait (human) (Q9HC16 whole entry L27A/S28A): as the sequence (Q9HC16 whole entry R102S/D103S) above, with L27A, S28A, S102R, S103D counted along it
Sequence of Apobec3G P129A MAPPIT bait (human) (Q9HC16 whole entry P129A): as the sequence (Q9HC16 whole entry R102S/D103S) above, with S102R, S103D, P129A counted along it
Sequence of Apobec3G T32E MAPPIT bait (human) (Q9HC16 whole entry T32E): as the sequence (Q9HC16 whole entry R102S/D103S) above, with T32E, S102R, S103D counted along it
Sequence of Apobec3G TF106-107AA MAPPIT bait (human) (Q9HC16 whole entry T106A/F107A): as the sequence (Q9HC16 whole entry R102S/D103S) above, with S102R, S103D, T106A, F107A counted along it
Sequence of Apobec3G TK98-99AD MAPPIT bait (human) (Q9HC16 whole entry T98A/K99D): as the sequence (Q9HC16 whole entry R102S/D103S) above, with T98A, K99D, S102R, S103D counted along it
Sequence of Apobec3G K99D MAPPIT bait (human) (Q9HC16 whole entry K99D): as the sequence (Q9HC16 whole entry R102S/D103S) above, with K99D, S102R, S103D counted along it
Sequence of Apobec3G D128H MAPPIT bait (human) (Q9HC16 whole entry D128H): as the sequence (Q9HC16 whole entry R102S/D103S) above, with S102R, S103D, D128H counted along it

In the case of “Gagpol MAPPIT prey (pMG2-Gagpol) (natural protein)”, the MAPPIT signal, % of WT in experiment [1] is 74 % of WT; in experiment [2], 63 % of WT; in experiment [3], 110 % of WT; in experiment [4], 50 % of WT; in [5] it was 48 % of WT; in experiment [6] it was 111 % of WT. The MAPPIT signal, % of WT is 64 % of WT in [7]; 96 % of WT in [8]; 60 % of WT in experiment [9]; 103 % of WT in experiment [10]; 118 % of WT in [11]; 70 % of WT in [12]. Further, the MAPPIT signal, % of WT in [13] was 81 % of WT; in experiment [14] it was 84 % of WT; in experiment [15], 25 % of WT; in [16], 94 % of WT.
